{"source": "patent US20060134122A1", "about": "“Peptides of syndecan-1 for inhibition of cancer” (priority 2004, published 2006)", "molecules": {"B1": {"name": "GST-mS1ED: recombinant mouse syndecan-1 ectodomain expressed as a fusion protein with GST (protein)", "chain": "QIVAVNVPPEDQDGSGDDSDNFSGSGTGALPDTLSRQTPSTWKDVWLLTATPTAPEPTSSNTETAFTSVLPAGEKPEEGEPVLHVEAEPGFTARDKEKEVTTRPRETVQLPITQRASTVRVTTAQAAVTSHPHGGMQPGLHETSAPTAPGQPDHQPPRVEGGGTSVIKEVVEDGTANQLPAGEGSGEQDFTFETSGENTAVAAVEPGLRNQPPVDEGATGASQSLLDRKEVLG", "modifications": "left off: a dimerising Fc or GST", "notes": "recombinant mouse syndecan-1 ectodomain expressed as a fusion protein with GST"}}, "key": {"[1]": {"system": "MDA-MB-231 and MB-435 cells", "test": "Migration across coated filters (modified Boyden chamber), MDA-MB-231 and MB-435", "format": "cell-based, human", "conditions": "S1ED pAb 250 μg/mL or GST-mS1ED 20 μM; 16 h", "description": "FIGS. 5A-B—Sdc-1ED Inhibitors disrupt αvβ3 integrin-dependent cell migration on VN. MDA-MB-231, MDA-MB-435 and MCF-7 cells in plating medium alone (black-filled) or in plating medium containing either 20 μM GST-mS1ED (open) or 250 μg/mL polyclonal mS1ED antibodies (gray-filled) were seeded on polycarbonate filters coated with either 10 μg/ml of VN (FIG. 5A) or FN (FIG. 5B) in a modified Boyden chamber. After 16 h, cells that migrated through the filter in response to 10% FBS in the lower chamber were quantified by colorimetric staining.\nTo test the role of the S1ED in αvβ3 integrin dependent signaling in another functional assay, cells were examined for their ability to migrate across VN or FN-coated filters in the presence or absence of S1ED pAb (250 μg/mL) or GST-mS1ED recombinant protein (20 μM). Migration of treated MDA-MB-231 and MB-435 cells across VN is suppressed 2- to 4-fold relative to untreated controls (FIG. 5A). MCF-7 cell migration across VN, which is αvβ1 dependent, is unaffected by either treatment."}, "[2]": {"system": "Human aortic endothelial cells (HAEC)", "test": "HAEC spreading on VN", "format": "cell-based", "conditions": "1-10 uM GST-mS1ED", "description": "FIG. 13—Human aortic endothelial cells rely on αvβ3 and αvβ5 integrins for spreading on VN. Human aortic endothelial cells (HAECs) were suspended and replated on 10 μg/ml VN in the presence of integrin inhibitory antibodies mAb 13 (specific for β1-containing integrins; this will inhibit the αvβ1 integrin), LM609 (specific for the αvβ3 integrin) and P1F6 (specific for the αvβ5 integrin), or combinations of these antibodies. After 2 hr, the cells were fixed, stained with Alexa488-conjugated phalloidin to aid in visualization, and observed by fluorescence microscopy to document integrin-dependent spreading. Inhibition of spreading requires simultaneous inhibition of both the αvβ3 and αvβ5 integrins.\nFIG. 15—αvβ3 and αvβ5 integrin-mediated spreading of human aortic endothelial cells on VN is disrupted by recombinant syndecan-1 ectodomain fusion protein. HAECs are plated on VN in the presence of no competitor, 1-10 uM GST-mS1ED (recombinant mouse syndecan-1 ectodomain expressed as a fusion protein with GST) or GST alone.\nFIG. 16—Inhibition of HAEC spreading on VN by silencing of Sdc-1. HAECs were transfected with a range of concentrations of siRNA specific for human Sdc1 (hS1), which achieves 80-88% silencing at 100-200 nM, as shown by flow cytometry using human Sdc-1 mAb B-B4. The cells treated with 200 nM siRNA were also plated on VN for 2 hr and display a 60% reduction in cell spreading. […]"}}}
{"molecule": "B1", "values": [{"measurement": "cell migration across FN", "setting": "[1]", "value": "neither inhibitor has any effect"}, {"measurement": "αvβ3 and αvβ5 integrin-mediated spreading on VN", "setting": "[2]", "value": "disrupted"}]}
